{"source": "patent US20250244325A1", "binders": {"B1": {"name": "antibody 30B8 (antibody, V domains shown)", "VH": "EVQLQQSGAELVKPGASVKLSCTASGFNIKDTYIHWVKQRPEQGLEWIGRIDPANGNTKYDPKFQGKATITADTSSNTAYLQLSSLTSEDTAVCYCAGSLYDYDGAPFAYWGQGTLVTVSA", "VL": "SIVMTQTPKFLLVSAGDRVTITCKASQSVTNDVTWYQQKPGQSPKLLIYYASNRYTGVPDRFTGSGYGTDFTFTISTVQAEDLAVYFCQQDYSSPWTFGGGTKLEIK"}}, "key": {"[1]": {"substrate": "S clamp antigen from CSL451 GMP batch TC20-02-08 (sublot VS20200615A) (SARS-CoV-2) (UniProt P0DTC2)", "assay": "binding kinetics from sensorgrams (FIG. 6); instrument and format not given"}, "[2]": {"substrate": "S clamp antigen from CSL451 GMP batch TC20-02-08 (sublot VS20200615A) (SARS-CoV-2) (UniProt P0DTC2)", "assay": "homologous 30B8 capture/detection EIA; CSL451 DP held 1 h at room temperature (control), pre-treated with 0.125% Zwittergent 3 h at 37 C, antigen titrated"}, "[3]": {"substrate": "S clamp antigen from CSL451 GMP batch TC20-02-08 (sublot VS20200615A) (SARS-CoV-2) (UniProt P0DTC2)", "assay": "kinetics on CM5 chip: anti-mouse Ab, 30B8 captured, CSL451 Sclamp antigen in solution, 1:1 binding; density 13 RU"}, "[4]": {"substrate": "S clamp antigen from CSL451 GMP batch TC20-02-08 (sublot VS20200615A) (SARS-CoV-2) (UniProt P0DTC2)", "assay": "kinetics on CM5 chip: anti-mouse Ab, 30B8 captured, CSL451 Sclamp antigen in solution, 1:1 binding; density 7 RU, table row 7"}, "[5]": {"substrate": "S clamp antigen from CSL451 GMP batch TC20-02-08 (sublot VS20200615A) (SARS-CoV-2) (UniProt P0DTC2)", "assay": "kinetics on CM5 chip: anti-mouse Ab, 30B8 captured, CSL451 Sclamp antigen in solution, 1:1 binding; density 20 RU, table row 4"}, "[6]": {"substrate": "S clamp antigen from CSL451 GMP batch TC20-02-08 (sublot VS20200615A) (SARS-CoV-2) (UniProt P0DTC2)", "assay": "kinetics on CM5 chip: anti-mouse Ab, 30B8 captured, CSL451 Sclamp antigen in solution, 1:1 binding; density 40 RU, table row 2"}, "[7]": {"substrate": "S clamp antigen from CSL451 GMP batch TC20-02-08 (sublot VS20200615A) (SARS-CoV-2) (UniProt P0DTC2)", "assay": "kinetics on CM5 chip: anti-mouse Ab, 30B8 captured, CSL451 Sclamp antigen in solution, 1:1 binding; density 20 RU, table row 3"}, "[8]": {"substrate": "S clamp antigen from CSL451 GMP batch TC20-02-08 (sublot VS20200615A) (SARS-CoV-2) (UniProt P0DTC2)", "assay": "kinetics on CM5 chip: anti-mouse Ab, 30B8 captured, CSL451 Sclamp antigen in solution, 1:1 binding; density 13 RU, table row 5"}, "[9]": {"substrate": "S clamp antigen from CSL451 GMP batch TC20-02-08 (sublot VS20200615A) (SARS-CoV-2) (UniProt P0DTC2)", "assay": "kinetics on CM5 chip: anti-mouse Ab, 30B8 captured, CSL451 Sclamp antigen in solution, 1:1 binding; MEAN ± SEM of the eight runs"}, "[10]": {"substrate": "S clamp antigen from CSL451 GMP batch TC20-02-08 (sublot VS20200615A) (SARS-CoV-2) (UniProt P0DTC2)", "assay": "kinetics on CM5 chip: anti-mouse Ab, 30B8 captured, CSL451 Sclamp antigen in solution, 1:1 binding; density 40 RU, table row 1"}, "[11]": {"substrate": "S clamp antigen from CSL451 GMP batch TC20-02-08 (sublot VS20200615A) (SARS-CoV-2) (UniProt P0DTC2)", "assay": "kinetics on CM5 chip: anti-mouse Ab, 30B8 captured, CSL451 Sclamp antigen in solution, 1:1 binding; density 7 RU, table row 8"}}, "data": [{"binder": "B1", "values": [{"measurement": "Kd", "setting": "[1]", "result": 0.015, "unit": "nM"}, {"measurement": "EC50 (read off the curve)", "setting": "[2]", "result": 0.7, "unit": "µg/mL"}, {"measurement": "Kd", "setting": "[3]", "result": 0.0171, "unit": "nM"}, {"measurement": "koff", "setting": "[3]", "result": "3.98e-05", "unit": "s⁻¹"}, {"measurement": "kon", "setting": "[3]", "result": "2.33e+06", "unit": "M⁻¹ s⁻¹"}, {"measurement": "Kd", "setting": "[4]", "result": 0.013, "unit": "nM"}, {"measurement": "koff", "setting": "[4]", "result": "3.11e-05", "unit": "s⁻¹"}, {"measurement": "kon", "setting": "[4]", "result": "2.39e+06", "unit": "M⁻¹ s⁻¹"}, {"measurement": "Kd", "setting": "[5]", "result": 0.0152, "unit": "nM"}, {"measurement": "koff", "setting": "[5]", "result": "3.68e-05", "unit": "s⁻¹"}, {"measurement": "kon", "setting": "[5]", "result": "2.42e+06", "unit": "M⁻¹ s⁻¹"}, {"measurement": "Kd", "setting": "[6]", "result": 0.0138, "unit": "nM"}, {"measurement": "koff", "setting": "[6]", "result": "3.25e-05", "unit": "s⁻¹"}, {"measurement": "kon", "setting": "[6]", "result": "2.35e+06", "unit": "M⁻¹ s⁻¹"}, {"measurement": "Kd", "setting": "[7]", "result": 0.0155, "unit": "nM"}, {"measurement": "koff", "setting": "[7]", "result": "3.66e-05", "unit": "s⁻¹"}, {"measurement": "kon", "setting": "[7]", "result": "2.37e+06", "unit": "M⁻¹ s⁻¹"}, {"measurement": "Kd", "setting": "[8]", "result": 0.0171, "unit": "nM"}, {"measurement": "koff", "setting": "[8]", "result": "3.96e-05", "unit": "s⁻¹"}, {"measurement": "kon", "setting": "[8]", "result": "2.31e+06", "unit": "M⁻¹ s⁻¹"}, {"measurement": "Kd", "setting": "[9]", "result": 0.0151, "unit": "nM"}, {"measurement": "Kd", "setting": "[10]", "result": 0.0159, "unit": "nM"}, {"measurement": "koff", "setting": "[10]", "result": "3.76e-05", "unit": "s⁻¹"}, {"measurement": "kon", "setting": "[10]", "result": "2.36e+06", "unit": "M⁻¹ s⁻¹"}, {"measurement": "Kd", "setting": "[11]", "result": 0.0131, "unit": "nM"}, {"measurement": "koff", "setting": "[11]", "result": "3.06e-05", "unit": "s⁻¹"}, {"measurement": "kon", "setting": "[11]", "result": "2.33e+06", "unit": "M⁻¹ s⁻¹"}]}]}
